Sequences and labels used below:
B1: Cytochrome c2, P00094 (parent)
chain: MKISLTAATVAALVLAAPAFAGDAAKGEKEFNKCKTCHSIIAPDGTEIVKGAKTGPNLYGVVGRTAGTYPEFKYKDSIVALGASGFAWTEEDIATYVKDPGAFLKEKLDDKKAKTGMAFKLAKGGEDVAAYLASVVK

In this series the parent is B1. Conditions: Rhodobacter capsulatus (strain ATCC BAA-309 / NBRC 16581 / SB1003); pH 7.5; 20 °C; GdnHCl; CD; Tris-HCl 20 mM; NaCl 40 mM; structure 1C2R; whole UniProt chain shown.

Several values for one entry are separate records, joined by “and”; a condition that tells them apart may be missing. Equal values may be shown once.

As to MKISLTAATVAALVLAAPAFAGDAAKGEKEFNKCKTCHSIIAPDGTEIVKGAKTGPNLYGVVGRTAGTYPEFKYKDSIVALGASGFAWTEEDIATFVKDPGAFLKEKLDDKKAKTGMAFKLAKGGEDVAAYLASVVK, the denaturant m value was 2.59 kcal/mol/M and 1.43 kcal/mol/M; the “denaturant midpoint (higher = more stable)” value is 1.71 M and 3.32 M; the unfolding free energy is 4.42 kcal/mol and 4.75 kcal/mol.
As to MKISLTAATVAALVLAAPAFAGDAAKGEKEFNKCKTCHSIIAPDGTEIVKGAKTGPNLYGVVGRTAGTYPEFKYKDSIVALGASGFAWTEEDIATCVKDPGAFLKEKLDDKKAKTGMAFKLAKGGEDVAAYLASVVK, the denaturant m value is 2.57 kcal/mol/M and 1.96 kcal/mol/M; the “denaturant midpoint (higher = more stable)” value is 1.44 M and 2.24 M; the unfolding free energy is 3.71 kcal/mol and 4.4 kcal/mol.

The values are drawn from FireProtDB (doi:10.1021/bi00231a002).
